Experimental data taken from patent US12404345B2, “Humanized antibodies against iRHOM2” (SCIRHOM GMBH, priority 2021, dated 2025).

T1: human iRhom2 (Homo sapiens, UniProt Q6PJF5)
T1 construct: MEF-DKO-hiR2-FL-WT-T7 cells stably expressing human iRhom2 full length wild type; expressed in transfected cells; host or cells: immortalized iRhom1/2-/- double knockout mouse embryonic fibroblasts, pMSCV retroviral infection
T1 sequence (Q6PJF5 1-856): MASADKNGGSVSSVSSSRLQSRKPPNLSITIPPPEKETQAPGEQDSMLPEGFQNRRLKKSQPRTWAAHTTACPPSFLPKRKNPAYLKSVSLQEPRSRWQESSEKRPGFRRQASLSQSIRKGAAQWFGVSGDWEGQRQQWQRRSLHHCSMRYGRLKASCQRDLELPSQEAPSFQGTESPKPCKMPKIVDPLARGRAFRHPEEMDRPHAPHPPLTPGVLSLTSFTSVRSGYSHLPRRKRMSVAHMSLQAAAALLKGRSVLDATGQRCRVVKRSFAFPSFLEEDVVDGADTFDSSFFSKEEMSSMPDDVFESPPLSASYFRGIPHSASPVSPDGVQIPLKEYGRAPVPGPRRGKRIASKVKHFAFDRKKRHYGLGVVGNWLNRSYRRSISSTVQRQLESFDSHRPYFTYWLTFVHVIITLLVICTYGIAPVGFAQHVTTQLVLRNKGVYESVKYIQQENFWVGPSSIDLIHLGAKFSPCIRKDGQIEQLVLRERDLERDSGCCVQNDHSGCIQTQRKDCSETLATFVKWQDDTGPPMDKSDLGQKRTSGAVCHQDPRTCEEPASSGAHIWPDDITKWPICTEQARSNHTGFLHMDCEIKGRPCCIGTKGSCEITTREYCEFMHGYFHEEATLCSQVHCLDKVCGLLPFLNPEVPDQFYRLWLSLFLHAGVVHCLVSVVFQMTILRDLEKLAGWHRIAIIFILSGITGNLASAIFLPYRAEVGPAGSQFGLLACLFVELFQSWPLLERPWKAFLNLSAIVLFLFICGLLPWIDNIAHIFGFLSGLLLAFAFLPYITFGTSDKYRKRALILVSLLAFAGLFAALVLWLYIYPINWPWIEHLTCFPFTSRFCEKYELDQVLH

B1: 16-B-03: humanized antibody binding human iRhom2; HCVD SEQ ID NO 1, LCVD SEQ ID NO 5 (antibody, V domains shown)
VH: QVTLRESGPALVKPTQTLTLTCTFSGFSLSTFALGVGWIRQPPGKALEWLAHIWWDDDKYYNPALKSRLTISKDTSKNQVVLTITNMDPVDTATYYCARITTYYYGMDYWGQGTLVTVSS
VL: EIVMTQSPDFQSVTPKEKVTITCRASQSIGNHLHWYQQKPDASPKLLIKYASQSISGVPSRFSGSGSGTDFTLTINSLEAEDAATYFCQQSYQWPLTFGQGTKLEIK
modifications: antibody sequences
B2: 16-B-07: humanized antibody binding human iRhom2; HCVD SEQ ID NO 17, LCVD SEQ ID NO 21 (antibody, V domains shown)
VH: QVTLRESGPALVKPTQTLTLTCTFSGFSLSTFALGVGWIRQPPGKALEWLAHIWWDEDKYYNPALKSRLTISKDTSKNQVVLTITNMDPVDTATYYCARITTYYYGMDYWGQGTLVTVSS
VL: EIVMTQSPDFQSVTPKEKVTITCRASQSIGNHLHWYQQKPDASPKLLIKYASQSISGVPSRFSGSGSGTDFTLTINSLEAEDAATYFCQQSYQWPLTFGQGTKLEIK
modifications: antibody sequences
B3: 16-B-05: humanized antibody binding human iRhom2; HCVD SEQ ID NO 9, LCVD SEQ ID NO 13 (antibody, V domains shown)
VH: QVTLRESGPALVKPTQTLTLTCTFSGFSLSTFALGVGWIRQPPGKALEWLAHIWWDEDKYYNPALKSRLTISKDTSKNQVVLTITNMDPVDTATYYCARITTYYYGMDYWGQGTLVTVSS
VL: EIVMTQSPDFQSVTPKEKVTITCRASQSIGNHLHWYQQKPDASPKLLIKYASQSISGVPSRFSGSGSGTDFTLTINSLEAEDAATYFCQQSYNWPLTFGQGTKLEIK
modifications: antibody sequences
B4: 23-B-04: humanized antibody binding human iRhom2; HCVD SEQ ID NO 25, LCVD SEQ ID NO 29 (antibody, V domains shown)
VH: QVTLRESGPALVKPTQTLTLTCTFSGFSLSTFGMGVGWIRQPPGKALEWLAHIWWDDEKYYNSALKSRLTISKDTSKNQVVLTITNMDPVDTATYYCARISNYGSNYWYFNVWGQGTLVTVSS
VL: AIQLTQSPSSLSASVGDRVTITCRASSSVSYMYWYQQKPGKAPKVLIYDTSNLASGVPSRFSGSGSGTDYTLTISSLQPEDFATYYCQQWNAYPLTFGQGTKLEIK
modifications: antibody sequences
B5: 42-B-02: humanized antibody binding human iRhom2; HCVD SEQ ID NO 33, LCVD SEQ ID NO 37 (antibody, V domains shown)
VH: QVTLRESGPALVKPTQTLTLTCTFSGFSLSTFGRGVGWIRQPPGKALEWLAHIWWDDEKYYNSALKSRLTISKDTSKNQVVLTITNMDPVDTATYYCARIQNYGSNYWYFDVWGQGTLVTVSS
VL: AIQLTQSPSSLSASVGDRVTITCRASSRISYMFWYQQKPGKAPKVLIYDTSNLASGVPSRFSGSGSGTDYTLTISSLQPEDFATYYCQQWNSYPLTFGQGTKLEIK
modifications: antibody sequences
B6: 42-B-04: humanized antibody binding human iRhom2; HCVD SEQ ID NO 41, LCVD SEQ ID NO 45 (antibody, V domains shown)
VH: QVTLRESGPALVKPTQTLTLTCTFSGFSLSTFGRGVGWIRQPPGKALEWLAHIWWDDEKYYNSALKSRLTISKDTSKNQVVLTITNMDPVDTATYYCARIQNYGSNYWYFDVWGQGTLVTVSS
VL: AIQLTQSPSSLSASVGDRVTITCRASSRISYMFWYQQKPGKAPKVLIYDTSNLASGVPSRFSGSGSGTDYTLTISSLQPEDFATYYCQQWNAYPLTFGQGTKLEIK
modifications: antibody sequences

Target: T1, human iRhom2
Assay: Affinity determination by indirect FACS scatchard analysis on L929-2041-hiR2-FL-WT-T7 cells
Type: binding
Conditions: 22 two-fold dilutions starting at 160 μg/ml, on ice 1 hour
Method: In this study, affinity measurements of the humanized antibodies 16-B-03, 16-B-05, 16-B-07, 23-B-04, 42-B-02 and 42-B-04 of the invention were performed by indirect FACS scatchard analysis on […] cells, a murine cell line expressing human iRhom2.
The resulting L929 mouse iRhom2 knock-out cell line was afterwards infected with different human iRhom2 constructs to obtain cell line derivatives, stably expressing different human iRhom2 proteins, that allow for binding analyses to different iRhom2 variants in the same genetic background.
In brief, mRhbdf2.3 IVT gRNA ([…]) was synthesized at Thermo Fisher Scientific GeneArt GmbH, Regensburg, Germany. One day post seeding in 24 well plates, L929 parental cells were transfected according to GeneArt CRISPR Nuclease mRNA user guide (Thermo Fisher Scientific, USA) with the gRNA/GeneArt Platinium Cas9 Nucelase (Thermo Fisher Scientific, USA) mix using Lipofectamine CRISPRMAX Transfection Reagent (Thermo Fisher Scientific, USA). 3 days post transfection, cells were lysed and DNA was extracted for amplification of specific PCR products using the mRhbdf2.3 fwd ([…])/mRhbdf2.3 rev ([…]) 5primer pair (Thermo Fisher Scientific, USA). […] Cleavage assay PCR products were also analyzed on Invitrogen 2% E-Gel Size Select agarose gels. Two rounds of subsequent sub cloning of the identified polyclonal L929 population using limited dilution technique were performed, using the Cleavage Detection Kit for identification of positive sub clones. Thereby, the most promising positive sub clone identified in the first round, named 1029, was further sub cloned in the second round to obtain the final clone, named 2041. The monoclonal cell population derived from this sub clone is named L929-2041 and was used for subsequent infection (according to the procedure described in Example 3) with the human iRhom2 construct hiR2-FL-WT-T7 for the generation of the cell lines L929-2041-hiR2-FL-WT-T7.
In brief, L929-2041-hiR2-FL-T7 were harvested with 10 mM EDTA in PBS, washed and resuspended in FACS buffer (PBS, 3% FBS, 0.05% sodium azide), and seeded in Nunc U-bottom 96-well plates (Thermo Fisher Scientific, USA) at approximately 3×10^5 cells per well. In order to pellet cells and remove supernatants, the plates were centrifuged at 1,500 rpm and 4° C. for 3 minutes. For primary staining, cells were resuspended in 100 μl per well of either FACS buffer alone (controls) or serial two-fold dilutions (in total 22 concentrations) of the humanized antibodies 16-B-03, 16-B-05, 16-B-07, 23-B-04, 42-B-02 and 42-B-04 of the invention in FACS buffer starting at 160 μg/ml and incubated on ice for 1 hour. Afterwards, plates were centrifuged at 1,500 rpm and 4° C. for 3 minutes and washed twice with 200 μl per well of FACS buffer. For secondary staining, cells were spun down and resuspended in 100 μl per well of PE-conjugated goat anti-human IgG F(ab′)2 detection fragment (Dianova, Germany) diluted 1:100 in FACS buffer. Protected from light, the cell suspensions were incubated on ice for 1 hour. Plates were then centrifuged at 1,500 rpm and 4° C. for 3 minutes and washed three times with 200 μl per well of FACS buffer. Finally, cells were resuspended in 150 μl per well of FACS buffer and analyzed using a BD Accuri™ C6 Plus flow cytometer (Becton Dickinson, Germany). Applying Prism8 software (GraphPad Software, USA), the respective KD value for each of the antibodies of the invention were calculated.

Which “KD values for binding to L929-2041-hiR2-FL-T7 cells” value (“KD values for binding” for short) does the source give for B1 here?
Its value is “subnanomolar to low nanomolar range”.

B2 was tested. Which “KD values for binding” value did it give?
The value was “subnanomolar to low nanomolar range”.

B3 was tested. Which “KD values for binding” value did it give?
The value was “subnanomolar to low nanomolar range”.

For B4, which “KD values for binding” value is on record?
The value was “subnanomolar to low nanomolar range”.

Which “KD values for binding” value does the source give for B5 here?
The value was “subnanomolar to low nanomolar range”.

For B6, which “KD values for binding” value is on record?
The value was “subnanomolar to low nanomolar range”.
